Laboratory results from the nanobody polyreactivity screen of Harvey et al. (2022).

Experiment: yeast display, Sf9 membrane polyspecificity reagent, FACS + sequencing; frameworks hold sequencing errors
Outline: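 Sorting gates, low and high (top ~1%), were placed on anti-HA fluorescence to track expression and on streptavidin fluorescence to track reagent binding. A clone's polyreactivity label is taken from the gate it came out of. The reagent was 10% biotinylated, detergent-solubilized Sf9 membrane, applied for 1 hour at 4 °C to galactose-induced yeast display cells.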

Row | Sequence | polyreactivity (PSR sort gate)
1 | QVQLVESGGGLVQAGGSLRLICAASGRIFGRNAMGWYRQAPGKERELVAVITWRGGSTYYADSVKGRFTISRDNAKNTVYLQMNSLKPEDTAVYYCAADTSRYYLPRYRTDYWGQGTQVTVSS | high polyreactivity
2 | QVQLVESGGGLVQAGGSLRLICAASGRIFRANAMGWYRQAPGQERELVATITISGGSTYYADSVKGRFTISRDNAKNTVYLQMNCLKPEDTAVYYCNAGHTLTFVPRPAYYSMYYWGQGTQVTVSS | low polyreactivity
3 | QVQLVESGGGLVQAGGSLRLICAASGRIFTSNAMGWYRQAPGKERELVAAISKSGGSTYYADSVKGRFTISRDNAKNTVYLQMNSLKPEDTAVYYCAAVPWRGFDYWGQGTQVTVSS | high polyreactivity
4 | QVQLVESGGGLVQAGGSLRLICAASGRIFVKYAIGWYRQAPGKERELVASITSGGRTNYADSVKGRFTISPDIAKNTVYLQMNSLKPEDTAVYYCAAVWRTASTQYYYWGQGTQVTVSS | high polyreactivity
5 | QVQLVESGGGLVQAGGSLRLICAASGRIFYINAMGWYRQAPGKERELVASITGSGGRTYYADSVKGRFTISRDNAKNTVYLQMNSLKPEDTAVYYCNADLYVGYLYYLYDYWGQGTQVTVSS | low polyreactivity
6 | QVQLVESGGGLVQAGGSLRLICAASGRIFYRNAMGWYRQAPGKERELVAAISGATSTYYADSVKGRFTFSRDNAKNTVYLQMNSLKREDTAVYYCAAKIIWYTIRHGSAGFNYWGQGTQVTVSS | high polyreactivity
7 | QVQLVESGGGLVQAGGSLRLICAASGRIFYSYAMGWYRQAPGKERELVAAITVSGGSTFYADSVKGRFTISRDNAKNTVYLQMNSLKPEDTAVYYCAATRFSQYDWGQGTQVTVSS | high polyreactivity
8 | QVQLVESGGGLVQAGGSLRLICAASGRIIYCNGMGWYRQAPGKERELVAAISSGGSTYYADSVKGRFTISRDNAKNTVYLQMNCLKPEDTAVYYCAADIDYESDRYDYWGQGTQVTVSS | low polyreactivity
9 | QVQLVESGGGLVQAGGSLRLICAASGRILYKNSMGWYRQAPAKEMQLVAAISSTAGYTYYADSLKGRFTISRDNAKNTVYLQMNSLKPEDTAVYYCAARRSGVKRRYDYWGQGTQVTVSS | low polyreactivity
10 | QVQLVESGGGLVQAGGSLRLICAASGRISLSNAMGWYRHAPGKEREFVAAITKRSDRTYYADSVKGRFTISRDNAKNTVYLQMNSLKPEETAVYYCAAKPLFGTRDDYWGQGTQVTVSS | low polyreactivity
11 | QVQLVESGGGLVQAGGSLRLICAASGRNCVYYAMGWYRQAPGKERELVAAITSGDSTYYADSVKGRFTISRDNAKNTVYLQMNSLKPEDTAVYYCAADHYYGSESGGFVIYYYWGQGTQVTVSS | low polyreactivity
12 | QVQLVESGGGLVQAGGSLRLICAASGRTFAGNAMGWYRQAPGKERELVAAITWSGGSTYYADSVKGRFTISRDNAKNTVYLQMNSLKPEDTAVYYCAADSQPPHELYESIEHESWGQGTQVTVSS | low polyreactivity
13 | QVQLVESGGGLVQAGGSLRLICAASGRTFATYAMGWYRQAPGKERELVAAISNSGGRTNYADSVKGRFTISRDNAKNTVYLLMNSLKPEDTAVFYCATKAYTSGRYYWGQGTQVTVSS | high polyreactivity
14 | QVQLVESGGGLVQAGGSLRLICAASGRTFGPYAMGWYRQAPGKEREFVAAITWRGGRTNYADSVKGRFTISRDNAKNTVYLQMNSLKPEDTAVYYCNAVISPHQWIRGGDSWGQGTQVTVSS | low polyreactivity
15 | QVQLVESGGGLVQAGGSLRLICAASGRTFGYNAMGWYRQAPGKEREFVAAISWSGGRTYYADSVKGRFTISRDNAKNTVYLQMNSLKPEHSAVYYCAAGFGDGPGNGYYTRYSWDDDYWGQGTQVTVSS | low polyreactivity
16 | QVQLVESGGGLVQAGGSLRLICAASGRTFKYYAMGWYRQAPGKERELVATITWSGTSTNYADSVKRRFTISRDIGKNSVYLQMNSLKPEDSAVYYCAARSKRRNYDYWGQGTQVTVSS | high polyreactivity
17 | QVQLVESGGGLVQAGGSLRLICAASGRTFNSNVMGRSRQAPGKERELVAAISGSSGSTRYADSVKGRFTISRDNAKNTVYLQMNSLKPEDTEVYYCAAYPLYRRRWTGDYWGQGTQVTVSS | high polyreactivity
18 | QVQLVESGGGLVQAGGSLRLICAASGRTFRYNAMGWYSQPHRKERELFAAINGGGSTYYADTVKGRFTISRDNAKNTVFLQMKSLKPEDTAVYYCAAANWRRNDYRYRFDYWGQGTQVTVSS | high polyreactivity
19 | QVQLVESGGGLVQAGGSLRLICAASGRTFWNYAMGWYRQAPGKERELVAVISFSDGSTYYADSVKGRFTISRDNAKNTVYLQMNSLKPEDTAVYYGAAKGPRRWGSGFDYWGQGTQVTVSS | low polyreactivity
20 | QVQLVESGGGLVQAGGSLRLICAASGRTFYSYAMGWYRQAPGKERELVAAISSGGTTYYADSVKGRFTISRDNAKNTDYLQMNSLKPEDTAVYYCATSRAWRYRSYYWGQGTQVTVSS | high polyreactivity
21 | QVQLVESGGGLVQAGGSLRLICAASGRTFYYYAMGWDRQAPGKERELVASISYSAGRTYADSVKGRFTISRDNAKNTVYLLMNSLKPEDTAVYYCAAALYVNPYNYGTARWYYYWGQGTQVTVSS | high polyreactivity
22 | QVQLVESGGGLVQAGGSLRLICAASGRTLSGYAMGWYRQAPGKERELVAAISSDGRTYYADSVKGRFTISRDNAKNTVYLQMNSLKPEDTAVYYCAKVRRGSYGYWGQGTQVTVSS | high polyreactivity

Row | Sequence | polyreactivity (PSR sort gate)
23 | QVQLVESGGGLVQAGGSLRLICAASGRTSVVNAMGWYRQAPGKERELVAAITSGGSTHYADSVKGRFTISRDNAKNTVYLQITSLKPEDTAGYYFNARDRRRTNLLDYWGQATQVTVSS | low polyreactivity
24 | QVQLVESGGGLVQAGGSLRLICAASGSIFAGNAMGWYRQAPGKERELVADITSGDSTYYADSVKGRFTISRDNAKNTVYLQMNSLKPEDTAVYYCAADSWDSQVVSYEYWGQGTQVTVSS | low polyreactivity
25 | QVQLVESGGGLVQAGGSLRLICAASGSIFAVNAMGWYRQAPGKERELVAAISRRGGSTYYADSVKGRFTISRDNAKITDYLQMNSLKPEDTAVYYCAKRWKATRARYDYWGQGTQVTVAS | high polyreactivity
26 | QVQLVESGGGLVQAGGSLRLICAASGSIFDVNAMGWYRQAPWKERELVAAISDSGGSTYYADSVKGRFTISRDNAKITVYLQMNSLKPEDTAVYYCNAVWSWYNYDDFDYWGQGTQVTVSS | low polyreactivity
27 | QVQLVESGGGLVQAGGSLRLICAASGSIFDWYDMGWYRQAPGKERELVAAITTGGITNYADSVKGRFTFSRDNAKNSVYLQMNSLKPEDTAVYYCNADFSVEFDYWGQGTQVNVSS | low polyreactivity
28 | QVQLVESGGGLVQAGGSLRLICAASGSIFGGYAMGWYIQAPGKERELVARITNGGSTYYADSVKGRFTISRDNAKNTVYLQMNSLKPEDTAVYYCNADWYAYPYGYWGQGTQVTVST | low polyreactivity
29 | QVQLVESGGGLVQAGGSLRLICAASGSIFGNYVMGWYRQAPGKEMELVAGISTRGGSTYYADSVKGRFTISRDNAKNTVYLQMNCLKPEDTAVYYCAAVPASYRYPMYYWGQGTQVTVSS | low polyreactivity
30 | QVQLVESGGGLVQAGGSLRLICAASGSIFGRYAMGWYRQAPGKERELVAAITGSGGTTYYADSVKGRFTISRDNAKNTVYLQMNSLKPEDTAVYYCAADPQVYYSGRPRYDYWGQGTQVTVSS | high polyreactivity
31 | QVQLVESGGGLVQAGGSLRLICAASGSIFGRYSMGWYRQAPGKERELVAAINYSGGRTYYADSVKGRVTISRDNAKNTVYLQMNSLKPEDTAVYYCAAAQFPDRNYNYWGQGTQVTVSS | high polyreactivity
32 | QVQLVESGGGLVQAGGSLRLICAASGSIFGWNAMGWYRQAPGKERELVASITWSGGRTYYADSVKGRFTISRDNAKNTVYLQMNSLKPEDTAVYYCAADYKPTSRSNKYYYWGQGTQVTVSS | high polyreactivity
33 | QVQLVESGGGLVQAGGSLRLICAASGSIFGYNAMVWYRQAPGKERELVAVINASGASTYYADSVKGRFTISRDNAKNTVYLHMNSLKPEDTAVYSCAKDPFPFPGGDYWGQGTQVTVSS | low polyreactivity
34 | QVQLVESGGGLVQAGGSLRLICAASGSIFKYYAMGLYRQAPGKERDLVAANRWSGGSTYYADSVKGRFTISRDNAKNTVYLQMNRLKPEDTAVYYCAAEYFNQNTRQGYDYWGQGTQVTVSS | low polyreactivity
35 | QVQLVESGGGLVQAGGSLRLICAASGSIFRSYSMGWYRQAPGKERELVAGINRSGASTYYADSVKGRFTISRDNAKNTVYLQMNSMKPEDTAVSYCNARAQRGGYNYWGQGTQVTVSS | high polyreactivity
36 | QVQLVESGGGLVQAGGSLRLICAASGSIFTHNTMGWYRQAPGKERELVASIDSGASTNYADSVKGRFTISRDNAKNTVYLQMNSLKPEDTAVYYCAADDAKFRYRDDYWGQGTQVTVSS | low polyreactivity
37 | QVQLVESGGGLVQAGGSLRLICAASGSIFTPYAMGWYRQAPGKERELVAAISTSGGSTYYADSVKGRFTISRDNAKNTVYLQMNSLKPEDTAVYYCYTVYYSQREIYYWGYDSWGQGTQVTVSS | high polyreactivity
38 | QVQLVESGGGLVQAGGSLRLICAASGSIFVLYAMGWYRTAPGKERELVAAINYDGASTYYADSVKGRFTISRDNANNTFYLQMNSLKPKDTAVYYCAADVSYPVIYEYDYGGQGTQVTVSS | low polyreactivity
39 | QVQLVESGGGLVQAGGSLRLICAASGSIFYEYAMGWYRQAPGKEREFVASISWSGGITSYADSVKGRFTISRDNAKNTVYLQMNSLKPEDTAVYYCAADFSWYLYDYDYWGQGTQVTVSS | low polyreactivity
40 | QVQLVESGGGLVQAGGSLRLICAASGSIFYRNAMGWYRQAPGKERELVAVITDGGTTSYADSVKGRFTISRDNAKNTVYLQMNSLKPEDTAVYYCAADRQPVYPSLGVYWDYGHDYWGQGTQVTVSS | low polyreactivity
41 | QVQLVESGGGLVQAGGSLRLICAASGSIIGANAMGWSRQAPGKERELGAAITDNTSTTFYADSVKGRFTISRDIAKNTVYLQMNSLKPEDTAVYYCNADRAVVLSTPLWGEYDYWGQGTQVTVSS | low polyreactivity
42 | QVQLVESGGGLVQAGGSLRLICAASGSILYRYAMGWYRQAPGKERELVASISWSDGSTYYADSVKGRFTISRDNAKNTLYLQMNSLKPEDTAVYYCAAKGWGSDSYYAYGYDYWGQGTQVTVSS | low polyreactivity
43 | QVQLVESGGGLVQAGGSLRLICAASGSISTPYTMGWYRQAPGKERELVAAISWIGDTTSYADSVKGRFTISRDNAKNTVYLQMNSLKPEDTAVYYCNAEHRGYDYWGQGTQVTVSS | low polyreactivity
